Measurements from patent US20170355769A1 (AbbVie / Abbott, published 2017).

Key:
Human full length B7-H3 = molecular target: T1, Human full length B7-H3 (human, UniProt Q5ZPR3 29-534); assay: FACS, NCI-H1650 cells
T1 construct: On 3T12 fibroblasts expressing full length human B7-H3 or on NCI-H1650 cells; signal peptide residues 1-28 stated; also called huB7-H3; CD276
T1 sequence: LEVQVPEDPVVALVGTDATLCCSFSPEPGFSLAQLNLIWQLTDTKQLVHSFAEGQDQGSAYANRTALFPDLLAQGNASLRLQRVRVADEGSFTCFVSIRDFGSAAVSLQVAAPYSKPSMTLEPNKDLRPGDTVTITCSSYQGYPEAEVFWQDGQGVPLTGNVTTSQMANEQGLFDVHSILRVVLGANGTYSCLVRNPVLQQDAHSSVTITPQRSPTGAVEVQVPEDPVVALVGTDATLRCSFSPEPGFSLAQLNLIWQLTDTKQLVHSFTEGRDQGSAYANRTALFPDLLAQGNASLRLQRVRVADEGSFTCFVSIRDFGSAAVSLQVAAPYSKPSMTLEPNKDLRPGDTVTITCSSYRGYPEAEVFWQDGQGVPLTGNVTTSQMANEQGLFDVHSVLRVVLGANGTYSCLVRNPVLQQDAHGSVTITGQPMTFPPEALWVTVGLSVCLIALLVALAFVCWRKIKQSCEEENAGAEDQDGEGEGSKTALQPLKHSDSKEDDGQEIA
Description: To generate purified chimeric antibodies, expression vectors were transiently transfected into HEK293 6E suspension cell cultures in a ratio of 60% to 40% light to heavy chain construct. 1 mg/ml of polyethylenimine (PEI) or 2.6 μL/mL of Expifectamine was used to transfect the cells. Cell supernatants were harvested after five days in shaking flasks, spun down to pellet cells, and filtered through 0.22 μm filters to separate IgG from culture contaminants. Antibody-containing supernatants were purified on Akta Pure using protein A mAb SelectSure. Columns were equilibrated in PBS pH 7.4, supernatants were then passed through the column and a wash was performed with PBS pH 7.4. IgG were eluted with 0.1 M acetic acid pH 3.5 and collected in several aliquots. Fractions containing IgG were pooled and dialyzed in PBS overnight at 4° C.
Cells were harvested from flasks when approximately 80% confluent using Gibco® Cell Dissociation Buffer. Cells were washed once in PBS/1% FBS (FACS buffer) then resuspended at 2.5×10⁶ cells/mL in FACS buffer. 100 μL of cells/well were added to a round bottom 96-well plate. 10 μL of a 10× concentration of mAb/ADC (final concentrations are indicated the figures). Wells were washed twice with FACS buffer and resuspended in 50 μL of secondary Ab (AlexaFluor 488) diluted in FACS buffer. The plate was incubated at 4° C. for one hour and washed twice with FACS buffer. Cells were resuspended in 100 μL of PBS/1% formaldehyde and analyzed on a Becton Dickinson LSRII flow cytometer. Data was analyzed using WinList flow cytometry analysis software.

[1] = molecular target: T2, Human B7-H3-ECD (His tag) (human, UniProt Q5ZPR3 29-461); assay: SPR Biacore, naked mAb
T2 construct: SPR analyte; also called huB7-H3; soluble ECD of human B7-H3
T2 sequence: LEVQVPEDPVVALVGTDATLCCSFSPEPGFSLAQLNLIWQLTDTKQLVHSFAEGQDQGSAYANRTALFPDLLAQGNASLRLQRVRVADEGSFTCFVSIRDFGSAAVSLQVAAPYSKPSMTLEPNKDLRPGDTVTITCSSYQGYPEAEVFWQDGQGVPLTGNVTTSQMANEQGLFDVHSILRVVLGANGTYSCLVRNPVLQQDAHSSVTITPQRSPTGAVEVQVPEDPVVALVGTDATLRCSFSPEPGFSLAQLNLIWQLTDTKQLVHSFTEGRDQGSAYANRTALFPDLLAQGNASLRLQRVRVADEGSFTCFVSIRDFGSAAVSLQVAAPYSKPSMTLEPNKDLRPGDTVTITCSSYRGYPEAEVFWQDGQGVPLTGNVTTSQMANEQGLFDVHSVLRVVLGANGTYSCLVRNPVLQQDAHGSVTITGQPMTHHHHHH
Source text: Biacore T200 SPR instruments were used to measure the binding kinetics of human B7-H3 (analyte) binding to various mAbs (ligands). The assay format was Fc-based capture via immobilized anti-mouse (Fc) (Pierce 31170) or immobilized anti-human (Fc) (Pierce 31125). A standard amine coupling protocol was employed to immobilize the capture reagents via primary amines to the carboxy-methyl (CM) dextran surface of CM5 sensorchips (Biacore); capture antibodies were coupled to a level of approximately 5000RU. For binding kinetic measurements the assay buffer was HBS-EP+ (Biacore): 10 mM Hepes, pH7.4, 150 mM NaCl, 3 mM EDTA, 0.05% polysorbate 20. During the assay, all measurements were referenced against the capture surface alone. Each assay cycle consisted of the following steps: 1) Capture of ligand to approximately 50RU; 2) Analyte injection over both reference and test surface, 240 μL at 80 μL/min, after which the dissociation was monitored for 900 seconds at 80 μL/min; 3) Regeneration of capture surface with low pH glycine. […] Data were processed and fit to a 1:1 binding model using Biacore T200 Evaluation Software to determine the binding kinetic rate constants, kₐ (on-rate) and kd (off-rate), and the equilibrium dissociation constant (affinity, KD). […]

B1: chAb13 (antibody, IgG1, V domains shown)
VH: DVQLQESGPDLVKPSQSLSLTCTVTGYSITSGYSWHWIRQFPGNKLEWMGYIHSSGSTNYNPSLKSRISINRDTSKNQFFLQLNSVTTEDTATYYCAGYDDYFEYWGQGTTLTVSS
VL: DIVMTQSQKFMSTSVGDRVSVTCKASQNVGFNVAWYQQKPGQSPKALIYSASYRYSGVPDRFTGSGSGTDFTLTISNVQSEDLAEYFCQQYNSYPFTFGSGTKLEIK
notes: chimeric, huIgG1/k
EC50 (Human full length B7-H3): 1.53 nM | Kd [1]: 5.7 nM
